Results published in patent USRE38424E1 (The United States of America as represented by the …, priority 1994, dated 2004).
Like-named read-outs stand apart in the source and are kept apart here.

Conditions: for Duration of Neutropenia in Neutropenic Cycles, Median / Duration of Neutropenia in Neutropenic Cycles, Range / Nadirs in Neutropenic Cycles, Median / Nadirs in Neutropenic Cycles, Range / Duration of Neutropenia in Neutropenic Cycles, Mean / Nadirs in Neutropenic Cycles, Mean / Day of Onset of Neutropenia in Neutropenic Cycles, Median / Day of Onset of Neutropenia in Neutropenic Cycles, Range / Day of Onset of Neutropenia in Neutropenic Cycles, Mean / Nadir (all cycles), Median / Nadir (all cycles), Range / Nadir (all cycles), Mean: taxol 250 mg/m^2/21 days
From the text: A total of 47 patients were included in this study. All patients had recurrent advanced stage epithelial ovarian cancer confirmed on histologic review at the Laboratory of Pathology, National Cancer Institute (NCI). Borderline, mixed, and germ cell histologies were excluded.
Pretreatment evaluation consisted of a physical examination, laboratory studies with CA-125, radiographic evaluation by CT scan, baseline electromyogram with nerve conduction velocity studies (EMG/NCV), creatinine clearance, chest radiograph, and EKG. On-study staging was completed within two weeks of starting therapy. Physical examination and laboratory evaluations were repeated with every cycle, except for CBC which was evaluated twice weekly. Patients underwent restaging every two cycles (i.e., every 6 weeks), which included the repetition of any radiographic studies that were abnormal upon entry. EMG/NCV studies were repeated as indicated to determine the presence of any progressive neurologic toxicity.
The G-CSF was supplied to the Division of Cancer Treatment by Amgen, Inc. (Thousand Oaks, Calif.). This G-CSF administration continued until the absolute granulocyte count of the patient was greater than 1500/μl for two consecutive days after the nadir (i.e., the total count for the two days was at least 3000/μl ) or until the total white blood cell count was greater than 30,000/μl. Patients with responding disease or stable disease continued on the study and were reevaluated at two cycle intervals.
Patients manifesting second or third degree heart block had remaining cycles given in the intensive care unit with appropriate interventions. Antiemetics were given as needed.
More specifically, this was undertaken by increasing the dose of G-CSF administered on the next treatment cycle.
The particulars pertaining to the flexible G-CSF dosage regimen are as follows. […] The dose of G-CSF was reduced by 5 μg/kg/day if severe bone pain occurred at these higher G-CSF dosage levels, i.e., at levels greater than or equal to 10 μg/kg/day.

B1: G-CSF: granulocyte colony-stimulating factor, available from Amgen, Inc. (protein, UniProt P09919 31-207, looked up)
Granulocyte …: TPLGPASSLPQSFLLKCLEQVRKIQGDGAALQEKLVSECATYKLCHPEELVLLGHSLGIPWAPLSSCPSQALQLAGCLSQLHSGLFLYQGLLQALEGISPELGPTLDTLQLDVADFATTIWQQMEELGMAPALQPTQGAMPAFASAFQRRAGGVLVASHLQSFLEVSYRVLRHLAQP
- Duration of Neutropenia in Neutropenic Cycles, Median (10 μg/kg G-CSF, 49 cycles): 1 days
- Duration of Neutropenia in Neutropenic Cycles, Range (10 μg/kg G-CSF, 49 cycles): 1 to 4 days
- Nadirs in Neutropenic Cycles, Median (10 μg/kg G-CSF, 49 cycles): 162
- Nadirs in Neutropenic Cycles, Range (10 μg/kg G-CSF, 49 cycles): 0-494
- Duration of Neutropenia in Neutropenic Cycles, Mean (10 μg/kg G-CSF, 49 cycles, ± 0.7 on wrapped line): 1 days
- Nadirs in Neutropenic Cycles, Mean (10 μg/kg G-CSF, 49 cycles, ± 158 on wrapped line): 178
- Day of Onset of Neutropenia in Neutropenic Cycles, Median (10 μg/kg G-CSF, 54 cycles): 7 days
- Day of Onset of Neutropenia in Neutropenic Cycles, Range (10 μg/kg G-CSF, 54 cycles): 5 to 9 days
- Day of Onset of Neutropenia in Neutropenic Cycles, Mean (10 μg/kg G-CSF, 54 cycles, ± 0.8 on wrapped line): 7 days
- Nadir (all cycles), Median (10 μg/kg G-CSF, 130 cycles): 865
- Nadir (all cycles), Range (10 μg/kg G-CSF, 130 cycles): 0-6232
- Nadir (all cycles), Mean (10 μg/kg G-CSF, 130 cycles, ± 1636 on wrapped line): 1341
- Day of Onset of Neutropenia in Neutropenic Cycles, Median (20 μg/kg G-CSF, 20 cycles): 7 days
- Day of Onset of Neutropenia in Neutropenic Cycles, Range (20 μg/kg G-CSF, 20 cycles): 6 to 11 days
- Duration of Neutropenia in Neutropenic Cycles, Median (20 μg/kg G-CSF, 20 cycles): 1 days
- Duration of Neutropenia in Neutropenic Cycles, Range (20 μg/kg G-CSF, 20 cycles): 1 to 5 days
- Nadirs in Neutropenic Cycles, Median (20 μg/kg G-CSF, 20 cycles): 191
- Nadirs in Neutropenic Cycles, Range (20 μg/kg G-CSF, 20 cycles): 0-493
- Duration of Neutropenia in Neutropenic Cycles, Mean (20 μg/kg G-CSF, 20 cycles, ± 0.9 on wrapped line): 1 days
- Day of Onset of Neutropenia in Neutropenic Cycles, Mean (20 μg/kg G-CSF, 20 cycles, ± 1.1 on wrapped line): 7 days
- Nadirs in Neutropenic Cycles, Mean (20 μg/kg G-CSF, 20 cycles, ± 155 on wrapped line): 200
- Nadir (all cycles), Median (20 μg/kg G-CSF, 42 cycles): 626
- Nadir (all cycles), Range (20 μg/kg G-CSF, 42 cycles): 0-6536
- Nadir (all cycles), Mean (20 μg/kg G-CSF, 42 cycles, ± 1430 on wrapped line): 1204
- Patients in whom the G-CSF dose is poorly tolerated (in vivo): about 5%
- Patients whose G-CSF doses were modified for bone pain (phase II): two
- Bone Pain, G-CSF DR (dose reduction) (phase II, 47 patients): 3 (6) No. (%)
